Reference: publication PMC7647453
Read-outs that look alike come from different tables or passages of the source.

What was measured:
Test in all cases: MST
[1] = biological target: NanoTemper RED-labeled FVIIa (FVIIa-R) (human) (UniProt P08709)
[2] = biological target: NanoTemper RED-labeled FVIIa (FVIIa-R) (human) (UniProt P08709); remark: listed apart in the source
[3] = biological target: NanoTemper RED-labeled FVIIa (FVIIa-R) (human) (UniProt P08709); remark: listed apart in the source
[4] = biological target: NanoTemper RED-labeled FVIIa (FVIIa-R) (human) (UniProt P08709); remark: listed apart in the source
[5] = biological target: NanoTemper RED-labeled FVIIa (FVIIa-R) (human) (UniProt P08709); remark: listed apart in the source
[6] = biological target: NanoTemper RED-labeled FVIIa (FVIIa-R) (human) (UniProt P08709); remark: listed apart in the source
[7] = biological target: NanoTemper RED-labeled FVIIa (FVIIa-R) (human) (UniProt P08709); remark: listed apart in the source
[8] = biological target: NanoTemper RED-labeled FVIIa (FVIIa-R) (human) (UniProt P08709); remark: listed apart in the source
[9] = biological target: NanoTemper RED-labeled FVIIa (FVIIa-R) (human) (UniProt P08709); remark: listed apart in the source
[10] = biological target: NanoTemper RED-labeled FVIIa (FVIIa-R) (human) (UniProt P08709); remark: listed apart in the source
[11] = biological target: NanoTemper RED-labeled FVIIa (FVIIa-R) (human) (UniProt P08709); remark: listed apart in the source
[12] = biological target: NanoTemper RED-labeled FVIIa (FVIIa-R) (human) (UniProt P08709); remark: listed apart in the source
[13] = biological target: NanoTemper RED-labeled FVIIa (FVIIa-R) (human) (UniProt P08709); remark: listed apart in the source

Sequence of UniProt P08709 (P08709 61-212, chain 1 of 2): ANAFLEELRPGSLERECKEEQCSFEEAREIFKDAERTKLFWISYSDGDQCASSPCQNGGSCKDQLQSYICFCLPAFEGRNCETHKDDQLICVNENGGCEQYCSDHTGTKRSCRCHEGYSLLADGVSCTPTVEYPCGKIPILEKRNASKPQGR
Sequence of UniProt P08709 (P08709 213-466, chain 2 of 2): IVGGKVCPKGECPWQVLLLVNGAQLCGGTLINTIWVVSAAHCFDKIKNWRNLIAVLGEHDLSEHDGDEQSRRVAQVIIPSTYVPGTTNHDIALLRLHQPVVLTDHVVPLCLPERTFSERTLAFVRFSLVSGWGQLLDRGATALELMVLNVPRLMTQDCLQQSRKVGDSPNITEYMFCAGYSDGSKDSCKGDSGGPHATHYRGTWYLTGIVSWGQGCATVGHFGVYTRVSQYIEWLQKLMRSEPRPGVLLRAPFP

gCΔ457t (soluble recombinant HSV1 glycoprotein C) (from UniProt P10228 25-511) (domain or fragment)
Kd [1]: 2000 nM | Kd [2]: 600 nM | Kd [3]: 1600 nM | Kd [4]: 800 nM | Kd [5]: 1000 nM | Kd [6]: > 13000 nM | Kd [7]: 2700 nM | Kd [8]: 400 nM | Kd [9]: 2900 nM | Kd [10]: 1300 nM | Kd [11]: 900 nM | Kd [12]: > 12000 nM | Kd [13]: 2200 nM
